Source: the DeepSol protein solubility set

test: soluble on expression in E. coli; label from the status in PepcDB or PDB records

Soluble on expression in E. coli, not soluble:
MGSDKIHHHHHHMIQMFINLLETIPSLGRHSFQVAFLSAQIAEKMNLDPNVSFLSGLIHDLGLILPYEGKTLLDEIDDTFVIVRDTPGKPLHLHSILGSFITDYVEKLKPISPIVLKHHFPASYLDKTEENLISNIVFISDQVSRYTMINLDVSPRDILIALEDMKSFFFPEVFEACREVLNTEFVQWQLENILAGYDVTDLLDHHVRNCPDCDKKDLIQIGKIVSFIVDTKSEFTTSHTWRVAVFSEKMAEKAGRNSEDLFIAGLYHDIGKISVSYKILEKPAKLSDEEYAIMKKHVYFSYLILLPYKDENWFLPAVRHHERLDGYGYPFRLKGEEMTLEDKIIQVADVFSALLEERPYRPANTVEKALSMVREEVKKKKLSQEAFELLESSLEDFDLSSIEVGREIRKEIRTFVNRVVEKFGDYVL, MGSDKIHHHHHHMIQVPASFDIQGHRGCRGLLPENTIAAFTKALLLGVTTLEFDLVISKDNRVVVSHDTFFHHEITMMVDGEDVTEANEKNFNLYAMNYADIKEIDVGMKTHPRFKSQKKVPAVKPLFRELIETAEKLSAKIQYNGEIKSTVEGDNIDHPNIALFCDLVVAEIKKAHITDRFTLQSFDVRALEYMHSQYPDIKLSYLVETKGTLKKQLEKLSFTPAVYSPDVTLVSKKDIDAAHKLGMRVIPWTVNTKEEIETLISLGVDGIITDYPDLFFEK, MGSDKIHHHHHHMIRKFVNRKRELEVLEKARLFVVHGRRRVGKTALLRKFLENKRYEKDVEGFSQEISSFINAPVRFESSRDAFKFLREQGKLIVILDEFPYLIEADKGIVSEFQEIVDVMLDNSDVTLILCGSSVGMMEREVPSYKSPLYGRAGGILKVQPFRFFDMVEWFGKDFERLLRIYDVTWGIPKYMEFFRTGSDEEIIANFFDPSAFLFNEARLLLLEELRNPSRYMQIIEAITLWKTRLNEIAQYTGIEPKDLPSYLRVLSNLGIIKREVPITERKGKRWVYVIEDEYFRFYHRFVSPHYEEIESLNPEPAIEDFRKNFNAYLGRTFEKVSREFLTRVIKPSKVGRWWHKGEEIDIVALKGEERKALLVEVKWKELSEKEARRILKDLEHKGELIGMEKWKRCYGLIAKKIENKESIKGEGFFLWDLKDFKSEMI, MGSDKIHHHHHHMIRLFEYDSKQAQSLSQVPVHQPSIIRVIHGEKSLLWQDESVLVGQGQLLLIPAGSHISFVNRPFLGRYRAVQLLLPHDLPQGILSSTADWRDPMPVQNVSRAVDLAWNALLQSLSLSLADSVQLHYLAALLLSLPDKRSVNWLYGHTQRSVTQAALALMSVSPSAPWQQEEIADKLHMSTASLRRKLVLEDTSFRQLLVEVRLSHGLAMLQNSGEPLLQVALACGYQSAEKFSLRFKQQFGLTPAAYRRTL, MGSDKIHHHHHHMISNEQYDYLRAHPTFERLTRDSFDQLAKHIRFRKIPKGQIFFYAEDPRDYLFVLYKGYARIEQYDETDSFTYLDYIRQGGAFPFGDMFQDKPYHYTAIAITDLEYFIVPMVLFETLSKINPSQMVYICQKLSKVLRFQELRLRNAMRSKASDRVVQALALLYWDMCQRDQFATLPFEIHIQEISRLAATTRETVSHVLKQLKQDGKIAYSHKQLTYLDIDYFLENLTETH, MGSDKIHHHHHHMITEELQKLYQEYTGVPVENITELPSSGSNRRYFRLTGAKTLIGVCGTSVEENDAFLYMAAHFRKSGLPVPEVHIVSENKSYYLQEDLGDTLLFHAIEKGRATSVFSEEEKELLRKTVRLLPAIQFAGADGFDFSRCYPQPEFNQRSILWDLNYFKYCFLKATGMEFQEDKLEDDFQKMSDVLLRSSSATFMYRDFQSRNVMIKDGEPWFIDFQGGRKGPFYYDVASFLWQAKAKYPDSLRQELLKEYIDALRKYQPIDEPYFYSQLRHFVLFRTLQVLGAYGFRGYFEKKPHFIQSVPFAIQNLRDLLKEAYPEYPYLCNVLRELTELKQFTDDLKKRQLTVKVMSFAYKKGIPDDPTGNGGGYVFDCRAVNNPGKYERYKPFTGLDEPVISFLEEDGEILRFLDSVYALVDASVKRYMERGFSNLSVCFGCTGGQHRSVYSAQHLAEHLNRKFGVKVELVHREQNIERTFEATV, MGSDKIHHHHHHMITKEDIVADVVTDYPKSADIFRNAGIDFCCGGQESIASAVNHKPNIDLNSLLNKLNHIDNTEGNSTINPKFLNVESLIQYIQSAYHETLKEEFKNLTPYMTKLAKVHGPSHPYLLKLQDLYREFRDSMLDHIRKEDEEDFPKLIQYSQGQDVQNIKIILEDLINDHEDTGQLLNVMNQLTSDYQTPEEACGTWKLVYQRLQNIERQTHQHVHLENHVLFKKVS, MGSDKIHHHHHHMIVEKRRFPSPSQHVRLYTICYLSNGLRVKGLLAEPAEPGQYDGFLYLRGGIKSVGMVRPGRIIQFASQGFVVFAPFYRGNQGGEGNEDFAGEDREDAFSAFRLLQQHPNVKKDRIHIFGFSRGGIMGMLTAIEMGGQAASFVSWGGVSDMILTYEERQDLRRMMKRVIGGTPKKVPEEYQWRTPFDQVNKIQAPVLLIHGEKDQNVSIQHSYLLEEKLKQLHKPVETWYYSTFTHYFPPKENRRIVRQLTQWMKNR, MGSDKIHHHHHHMIVLGHRGYSAKYLENTLEAFMKAIEAGANGVELDVRLSKDGKVVVSHDEDLKRLFGLDVKIRDATVSELKELTDGKITTLKEVFENVSDDKIINIEIKEREAADAVLEISKKRKNLIFSSFDLDLLDEKFKGTKYGYLIDEENYGSIENFVERVEKERPYSLHVPYQAFELEYAVEVLRSFRKKGIVIFVWTLNDPEIYRKIRREIDGVITDEVELFVKLR, MGSDKIHHHHHHMIWYLEKWRRRWILGRKPIRESVWQSAVDQLPFLHGLTQDEFRQLREWTSIFLHDKKINGVQGLVVTEAMRVMIAVQACLLILKLDPEYYDDWVEVIVYPGKFILDHAYTDETGIVHTRRMVASGESWQAGPVILSWEDVVHVHHESGYNVVIHEFAHKLDMLNGSANGYPPLHSDMDPRIWAVVFSRAYEIFCRQVERGEVTIMDPYAAEDPAEFFAVSSEVFFTRPYRIKQYFPEMYQQLARYYRQDPAARQECETDS, MGSDKIHHHHHHMIYIGLPQWSHPKWVRLGITSLEEYARHFNCVEGNTTLYALPKPEVVLRWREQTTDDFRFCFKFPATISHQAALRHCDDLVTEFLTRMSPLAPRIGQYWLQLPATFGPRELPALWHFLDSLPGEFNYGVEVRHPQFFAKGEEEQTLNRGLHQRGVNRVILDSRPVHAARPHSEAIRDAQRKKPKVPVHAVLTATNPLIRFIGSDDMTQNRELFQVWLQKLAQWHQTTTPYLFLHTPDIAQAPELVHTLWEDLRKTLPEIGAVPAIPQQSSLF, MGSDKIHHHHHHMIYNDRLGEVMDLNTLIKIIEKVGRIEIEDIKITADELIINIPSAPPIVIPQTPSIKEKLAEEGIIEIKDVPELDWEPPVEKYPGYIREVQFGKPKSEGGRGKVVKIGGQRALYRFEEPQPNPPVVTFDIFDIPMPGLPKPIRQFFQDVMEDPCEWAKKCVKEFGADMITIHHISTDPKIKDKSPKEAAKLMEDLLQAVDVPFVIGGSGNPQKDPLVLEACAEVAEGDRCLLASANLELDYKKIVDAAMKYDHNVLAWSIMDPNMARDLNRKLVEAGLDPNRIVMDPTTCALGYGIEFSINAMVRLRLNGLKGDELVNMPMSSGTTNAIGAREAWMNNPEWGPREYRLPLWEITTGITMMMCGVDLFMMLNPISVKTLKEIGKTLTTKPGEVKLNTNNYEWIVSP, MGSDKIHHHHHHMKAMAMTPKPTAAIVGMGDAYASMQDRKDPIQLAVAATHKALADAGITKDQVDAVFTGRSPWADKRSQWSNIFCSHMHMPVTITSEITMHGAGLNATVAMAAQMIAAGRAQYVLCLQSDATELFVDAVAMGAEADADPQFEIPYGPTIPALYAQAACRYFHEFGITEEDLADVAIANQSWAMHHPHAAKARFGSIDRAKVLSSPYVATPLRRWMCSTWGGGTGGALVVTSVDNARTAQDPVYVMGYGSATTHEYLGDRMNMRRCRYPSLGAFPNLTHTATAEAARQAYESSGLTPADIDMAQISVNFAHMGPLIMEDLGFAAKGRGMDLYRAGRTGVDGDLPIDTNGGWLSFGQPGISCNMDSYAEAVRQLRGNALGRAPARRPRTVLVQGSGGMLAAGSVTILASEL, MGSDKIHHHHHHMKAVLVEQPGSSEQLKVVEREIPKIKEGWSLVKIKGFGINRSEIFTRKGYSPSVVFPRVLGIECVGIIEETSDKNHFFHGQKVVSIMGEMGRAFDGSYAEYVLLPNEQIYPIKTNLTWDKLAAAPESYYTAYGAYKNLKLKKQDLVLVRAGASGVALAFLNLLKASLPEIKVTASVRSLAKKQQLLDSGYDEVIIDRDSCLQTKQKFDKVLDLIGPACIDDTLNHVADGGIICLVGLLGGQWTLDNFDPIMALQNNIYLTTFYSGNINLNKLQELFDFIAKYAVPIKVEKIFTIDHIKEAHDYLESPQAFGKVIVLNGVA, MGSDKIHHHHHHMKDNPISPTIPLDQDGVHHGFLKLPYSRDDSAWGSVMIPITVIQNGAGKTALLTGANHGDEYEGPVALQELAATTRAEDVTGRLIIVPYFNYPAFRASARTSPIDRGNLNRAFPGRPDGTVTQKIADYFQRTLLPMADVAVDFHSGGKTLDFVPFAAAHILEDKVLQDACFAAMQAFNAPYSVQLLEIDSEGMYDTAVEEMGKVLVTTELGGGGMSTARSNAIAKKGLRNVLIHFGILQGEMQIDPSVTLDMPDGDCYLFSEHDGLFEIMIDLGEPVQEGDLVARVWSPDRTGEAPVEYRARRSGVLISRHFPGMIKSGDCAAVIGVVEG, MGSDKIHHHHHHMKDRSFDTLQEAVDVLSLTLNGPVTLEDREHRLLAYSKHSHETDSARIETIMNRQVPDRVIEGLWSSGLLQKLNQTDEPIRIPGIPAVGLGNRVAISIRQQQFVLGYIWVLELEEPLTDEQLNDLKDMVSLIRAMLIKQQETRFRRRLEREERWRHLYQGTETVAEVKRRFQAEGEPLPERGVVVQFFCERTIKEEHEQALSFISEKVKSRILVTFAMLIDGKWTVYLTDSLKKPLDEQVVKHFIDQWIRSWNDQFSYANVLAGVGQHCSQLTDVSESFHQAEKVIELKGEFAYELDKVYYFHELGFYRIIVDSVPILESETVQTLAAYDQKQGTELLQTLEAFLDVDGRNQAAAALLHVHPNTLNYRMKRIYELTGLDVKNMKDKVSLYLELKLRRWRNRVE, MGSDKIHHHHHHMKELKIIFIPGWGMEEGVWTLVLPYFKEYSVQCINWRNVKEQSEFAGRIIDVAKDENVILVGWSLGALAAVQAHKKIQTKGIVLIGGTPKFTNTSDYTSGWNALHVERLKKNVARKKEDTLKRFYENMFTKDELKENTSFEEIALNFKGDSIQSLQLGLDYLIETDMRNELIDVKVPLLLLHGEQDVICPLSAAHSMTENANAKLKVVSEAGHALCVTNFEYCANEIIQFVEGIRHDQQNVTTKTI, MGSDKIHHHHHHMKETSWDDYKIAYQVALDGSLSRAGVSLRINHATVLRRINQLEQALEVKLFIRHQRGYKLTDAGCVLMDEMPEMLAKFSSLENKLQNVEGDISGELRITTVSSFSPVITPALKAFRAKYPKIRLKLISTDDIVPLDSGAAHVSLRAGPSPVGVDLVVKNLIKLETAYHATQDYIDEFGQPKTINEFNDHQWVLPTPEKYRIPFVNYIVDKIDKNRIVFQSNNFSDIHDAVIAGMGIGPLSDHQASLNPSMVKIDLDIPKNGESIWFVYHKDLKHSARIQSFYHFLKAALSDIEQEHLRISDSKTNKD
